Consider 1 substance from US20210063414A1, “METHODS FOR PREVENTING AND/OR TREATING BONE LOSS CONDITIONS BY MODULATING IRISIN” (Dana-Farber Cancer Institute, Inc., priority 2018, published 2021).

What all share (test): Crosslinking/co-immunoprecipitation/mass spectrometry (TMT quantitative proteomics) to identify irisin receptors
Common to all, as to format: binding

Assay [1] concerns the target T1, MLO-Y4 cell surface proteins (Mus musculus, UniProt P63038).
T1 construct: endogenous in cells; host or cells: MLO-Y4
The conditions noted are these: co-precipitated protein Hspd1 (CH60_MOUSE). The gist of the method:
(§1)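 Mouse MLO-Y4 cells were switched to serum-free FreeStyle medium for 4 h, chilled, then exposed to 10 nM His-tagged irisin (or adipsin as control) for 20 min. Cells were crosslinked with 1.5 mM DTSSP (30 min, ice), and bound proteins were pulled down on Ni-NTA and eluted with 250 mM imidazole. Eluates were separated by SDS-PAGE, trypsin-digested in gel, TMT 6-plex labelled and quantified by MS3-based LC-MS/MS on an Orbitrap Fusion Lumos.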

The target in assay [2] is T2, MLO-Y4 cell surface proteins (Mus musculus, UniProt Q921G7).
T2 construct: endogenous in cells; host or cells: MLO-Y4
T2 sequence (Q921G7 33-616): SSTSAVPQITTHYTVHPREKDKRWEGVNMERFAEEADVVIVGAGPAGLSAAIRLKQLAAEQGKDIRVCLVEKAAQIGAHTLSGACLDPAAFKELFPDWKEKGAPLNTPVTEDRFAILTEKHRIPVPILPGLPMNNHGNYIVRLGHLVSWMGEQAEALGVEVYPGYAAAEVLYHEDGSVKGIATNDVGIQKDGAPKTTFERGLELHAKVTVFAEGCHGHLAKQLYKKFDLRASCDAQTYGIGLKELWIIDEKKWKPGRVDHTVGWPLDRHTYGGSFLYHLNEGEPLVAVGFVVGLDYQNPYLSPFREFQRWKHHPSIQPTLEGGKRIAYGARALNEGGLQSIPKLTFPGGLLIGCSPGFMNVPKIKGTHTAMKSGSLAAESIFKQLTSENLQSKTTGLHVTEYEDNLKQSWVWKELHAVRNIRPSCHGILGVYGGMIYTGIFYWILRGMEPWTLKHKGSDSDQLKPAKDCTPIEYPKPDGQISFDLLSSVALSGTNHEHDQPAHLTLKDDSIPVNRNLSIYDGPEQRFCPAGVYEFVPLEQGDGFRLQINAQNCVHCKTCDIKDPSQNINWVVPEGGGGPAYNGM
Particulars: co-precipitated protein Etfdh (ETFD_MOUSE). In outline:
as §1

For assay [3], the target named is T3, MLO-Y4 cell surface proteins (Mus musculus, UniProt Q8K221).
T3 construct: endogenous in cells; host or cells: MLO-Y4
T3 sequence (Q8K221 1-341): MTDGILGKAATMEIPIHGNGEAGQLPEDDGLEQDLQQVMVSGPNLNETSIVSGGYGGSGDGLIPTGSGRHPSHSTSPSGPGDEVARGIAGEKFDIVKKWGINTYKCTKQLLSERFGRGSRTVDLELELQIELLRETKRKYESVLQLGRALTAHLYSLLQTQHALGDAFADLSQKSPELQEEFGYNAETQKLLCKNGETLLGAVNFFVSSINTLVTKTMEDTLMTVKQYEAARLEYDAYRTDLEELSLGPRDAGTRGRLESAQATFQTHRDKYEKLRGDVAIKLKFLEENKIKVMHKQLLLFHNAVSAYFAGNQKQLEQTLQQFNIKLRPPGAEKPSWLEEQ
Particulars: co-precipitated protein Arfip2 (ARFP2_MOUSE). In outline: as §1

In assay [4] the target is T4, MLO-Y4 cell surface proteins (Mus musculus, UniProt Q66L42).
T4 construct: endogenous in cells; host or cells: MLO-Y4
Particulars: co-precipitated protein Map3k10 (M3K10_MOUSE). In outline:
as §1

T4 sequence (Q66L42 whole entry): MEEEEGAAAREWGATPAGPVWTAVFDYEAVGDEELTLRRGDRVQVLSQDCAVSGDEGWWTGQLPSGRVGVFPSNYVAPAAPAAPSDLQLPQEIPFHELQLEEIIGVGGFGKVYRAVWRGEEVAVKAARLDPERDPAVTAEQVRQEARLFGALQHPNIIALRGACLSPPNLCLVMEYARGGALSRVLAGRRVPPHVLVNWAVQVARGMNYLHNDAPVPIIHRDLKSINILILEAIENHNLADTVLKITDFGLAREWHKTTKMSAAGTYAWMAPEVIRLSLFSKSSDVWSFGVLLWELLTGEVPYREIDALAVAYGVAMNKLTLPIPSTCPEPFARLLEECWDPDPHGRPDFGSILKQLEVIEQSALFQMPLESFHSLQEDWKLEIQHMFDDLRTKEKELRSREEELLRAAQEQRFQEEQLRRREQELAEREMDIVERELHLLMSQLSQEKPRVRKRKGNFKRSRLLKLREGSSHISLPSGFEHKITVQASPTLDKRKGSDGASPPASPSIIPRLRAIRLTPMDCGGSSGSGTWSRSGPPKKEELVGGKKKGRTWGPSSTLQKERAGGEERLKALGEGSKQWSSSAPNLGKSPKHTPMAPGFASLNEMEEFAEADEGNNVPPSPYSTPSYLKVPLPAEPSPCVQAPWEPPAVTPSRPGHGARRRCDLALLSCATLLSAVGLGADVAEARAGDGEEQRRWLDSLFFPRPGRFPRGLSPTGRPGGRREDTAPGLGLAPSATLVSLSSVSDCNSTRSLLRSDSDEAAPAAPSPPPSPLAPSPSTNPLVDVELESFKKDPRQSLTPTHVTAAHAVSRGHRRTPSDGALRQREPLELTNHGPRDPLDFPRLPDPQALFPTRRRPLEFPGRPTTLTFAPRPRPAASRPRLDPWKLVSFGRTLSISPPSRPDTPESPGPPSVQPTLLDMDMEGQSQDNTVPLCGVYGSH
T1 sequence (P63038 27-573): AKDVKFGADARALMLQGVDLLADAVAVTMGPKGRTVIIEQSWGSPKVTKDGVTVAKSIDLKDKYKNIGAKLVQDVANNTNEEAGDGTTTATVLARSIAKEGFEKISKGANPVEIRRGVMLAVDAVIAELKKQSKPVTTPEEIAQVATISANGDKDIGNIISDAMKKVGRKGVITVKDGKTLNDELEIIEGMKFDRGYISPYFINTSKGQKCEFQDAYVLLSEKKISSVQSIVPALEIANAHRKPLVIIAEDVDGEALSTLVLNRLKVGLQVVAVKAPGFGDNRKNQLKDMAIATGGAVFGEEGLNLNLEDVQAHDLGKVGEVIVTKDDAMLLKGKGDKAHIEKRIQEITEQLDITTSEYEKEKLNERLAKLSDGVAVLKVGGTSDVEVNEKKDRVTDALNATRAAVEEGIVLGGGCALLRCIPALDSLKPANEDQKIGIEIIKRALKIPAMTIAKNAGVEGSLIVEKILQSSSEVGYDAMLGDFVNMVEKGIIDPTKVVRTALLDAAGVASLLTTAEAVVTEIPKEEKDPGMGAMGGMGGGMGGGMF

In the case of adipsin, the TMT signal-to-noise ratio in assay [1] is recorded as 4263.9; in assay [2], 57.6477; in assay [3], 1092.57; in assay [4], 109.366.
